Literature values in publication PMC12571840.

Experiments:
CRHR1 (Homo sapiens) = CRHR1 (Homo sapiens) (UniProt P34998)
CRHR2 (Homo sapiens) = CRHR2 (Homo sapiens) (UniProt Q13324)
Chain of UniProt Q13324 (Q13324 20-411): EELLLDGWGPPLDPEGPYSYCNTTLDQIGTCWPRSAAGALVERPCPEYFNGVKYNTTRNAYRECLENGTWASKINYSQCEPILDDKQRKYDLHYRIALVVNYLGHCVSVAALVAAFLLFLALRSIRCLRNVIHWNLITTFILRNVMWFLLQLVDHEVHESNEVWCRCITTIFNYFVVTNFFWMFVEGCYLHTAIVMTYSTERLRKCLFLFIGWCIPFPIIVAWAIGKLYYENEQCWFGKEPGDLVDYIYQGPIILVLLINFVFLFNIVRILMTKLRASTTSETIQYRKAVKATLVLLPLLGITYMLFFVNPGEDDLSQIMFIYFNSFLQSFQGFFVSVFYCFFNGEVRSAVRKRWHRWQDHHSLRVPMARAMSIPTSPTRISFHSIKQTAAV

Chain of UniProt P34998 (P34998 24-415): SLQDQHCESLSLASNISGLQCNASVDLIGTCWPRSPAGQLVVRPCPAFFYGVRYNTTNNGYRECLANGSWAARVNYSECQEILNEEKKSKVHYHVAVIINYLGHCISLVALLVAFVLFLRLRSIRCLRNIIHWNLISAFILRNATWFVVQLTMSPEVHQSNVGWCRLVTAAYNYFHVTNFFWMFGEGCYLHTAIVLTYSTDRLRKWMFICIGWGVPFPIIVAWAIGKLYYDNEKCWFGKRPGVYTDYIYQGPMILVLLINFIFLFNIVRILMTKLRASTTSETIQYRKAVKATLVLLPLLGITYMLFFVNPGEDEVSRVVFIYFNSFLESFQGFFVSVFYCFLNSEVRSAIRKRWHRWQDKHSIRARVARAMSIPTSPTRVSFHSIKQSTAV

## CRH (from UniProt P06850)
CRHR1 (Homo sapiens)
  Ki: 0.95 nM
CRHR2 (Homo sapiens)
  Ki: 13 nM
